# Source: paper PMC10703199
# Legend:
# [1] = molecular target: sperm immobilization factor (SIF) from Staphylococcus aureus (Staphylococcus aureus)
# [2] = molecular target: SIF-binding receptor from Proteus mirabilis (PM-SBR) (Proteus mirabilis); assay: ITC; SIF (500 μg/ml) in the syringe, 10 μl injections into PM-SBR (200 μg/ml) in the vial, PBS as reference, 37°C, stirring 200 rpm, 800 s between injections; micro reaction calorimeter
substance,measurement,setting,value
SIF-binding receptor from Proteus mirabilis (PM-SBR) (natural protein),motility of mouse spermatozoa exposed for 20 seconds to SIF (70 μg) pre-incubated with PM-SBR (10-200 μg): amount of PM-SBR that alleviated the immobilization,[1],130 µg
same,viability of mouse spermatozoa (eosin staining) with SIF (150 μg) pre-incubated with PM-SBR (50-300 μg): minimum effective concentration (MEC) of PM-SBR reducing sperm mortality caused by SIF,[1],270 µg
sperm immobilization factor (SIF) from Staphylococcus aureus (natural protein),Ka,[2],1220 M⁻¹
same,dH,[2],9.58 kJ/mol
